Laboratory results reported in publication PMC3824618.

Molecular target: T1, wild-type human cystathionine β-synthase, HIS-tagged, expressed in HEK-293 cells (human), P35520
T1 chain: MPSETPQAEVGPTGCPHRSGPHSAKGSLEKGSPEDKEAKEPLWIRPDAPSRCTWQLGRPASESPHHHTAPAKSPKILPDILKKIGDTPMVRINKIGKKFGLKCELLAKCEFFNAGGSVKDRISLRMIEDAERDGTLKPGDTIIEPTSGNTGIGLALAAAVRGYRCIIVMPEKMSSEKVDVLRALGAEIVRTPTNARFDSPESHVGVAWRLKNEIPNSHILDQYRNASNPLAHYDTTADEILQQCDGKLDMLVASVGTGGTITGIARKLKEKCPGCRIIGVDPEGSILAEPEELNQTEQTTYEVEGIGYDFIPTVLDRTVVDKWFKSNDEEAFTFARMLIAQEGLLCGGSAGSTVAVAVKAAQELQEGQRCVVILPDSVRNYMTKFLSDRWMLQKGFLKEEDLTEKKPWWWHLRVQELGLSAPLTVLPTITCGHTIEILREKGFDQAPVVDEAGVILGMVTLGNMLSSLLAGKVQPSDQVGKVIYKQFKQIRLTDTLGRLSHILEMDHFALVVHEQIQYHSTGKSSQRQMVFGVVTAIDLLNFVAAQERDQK
Assay: native gel or EMSA
Conditions: remark: other sources report otherwise

stoichiometry N: 4
B1: wild-type human cystathionine β-synthase, HIS-tagged, expressed in HEK-293 cells, P35520 1-551 (enzyme)
chain: T1 chain
